According to US20250122303A1 (HUMMINGBIRD BIOSCIENCE PTE, published 2025):
Where two headings read alike, the source gives them in different places.

Experiments:
moFcRn = molecular target: T1, moFcRn (mouse, UniProt Q61559); assay: Bio-Layer Interferometry (determined as described in Example 7)
T1 construct: recombinant; also called mouse FcRn; gene FCGRT (so in the source)
T1 sequence (receptor, looked up): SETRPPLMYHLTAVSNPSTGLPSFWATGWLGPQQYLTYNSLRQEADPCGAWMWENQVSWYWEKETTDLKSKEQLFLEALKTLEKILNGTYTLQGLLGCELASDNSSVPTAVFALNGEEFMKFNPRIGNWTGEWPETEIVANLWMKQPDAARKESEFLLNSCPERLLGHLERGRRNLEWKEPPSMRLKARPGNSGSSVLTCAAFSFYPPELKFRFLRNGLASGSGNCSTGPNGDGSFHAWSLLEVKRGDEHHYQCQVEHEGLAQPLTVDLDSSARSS
T1 sequence (looked up): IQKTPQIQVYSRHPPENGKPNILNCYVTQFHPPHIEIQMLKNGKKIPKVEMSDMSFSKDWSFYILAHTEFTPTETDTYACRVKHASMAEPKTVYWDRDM

His-tagged human HER3 [1] = molecular target: T2, His-tagged human HER3 (human, UniProt P21860 20-643); assay: BLI (Octet QK384), antibody on anti-human IgG capture tips, His-tagged human HER3 35-278 nM, global 1:1 fit; kdis Error 1.15E-04
T2 construct: Antigen of the BLI experiments and of the HER2-Fc dimerisation ELISA; also called HER3 His; not shown: His tag
Method: The anti-HER3 antibody clones in IgG1 format were analysed for binding affinity to human HER3. Bio-Layer Interferometry (BLI) experiments were performed using the Octet QK384 system (ForteBio). anti-Human IgG Capture (AHC) Octet sensor tips (Pall ForteBio, USA) were used to anti-HER3 antibodies (25 nM). All measurements were performed at 25° C. with agitation at 1000 rpm. […] Sensograms were referenced for buffer effects and then fitted using the Octet QK384 user software (Pall ForteBio, USA). Kinetic responses were subjected to a global fitting using a one site binding model to obtain values for association (Kₒₙ), dissociation (Koff) rate constants and the equilibrium dissociation constant (KD). Only curves that could be reliably fitted with the software (R²>0.90) were included in the analysis.

[2] = molecular target: T3, human HER3 expressed on cells (HEK293 HER3 O/E cells) (human, UniProt P21860 20-1342); assay: flow cytometry on HEK293T HER3 O/E cells, 10 ug antibody as printed, FITC-conjugated anti-Fc secondary
T3 construct: Also used here for HER3 on U2OS cells of the PathHunter kit and on cancer cell lines; also called HEK293 cells transfected with vector encoding human HER3; human HER3-expressing cells
Method: (§1) The cells were washed with buffer (PBS with 2 mM EDTA and 0.5% BSA) and resuspended in FITC-conjugated anti-FC antibody (Invitrogen, USA) at 10 μg/ml for 20 min at 4° C. Cells were washed again and resuspended in 200 μL of FACS flow buffer (PBS with 5 mM EDTA) for flow cytometric analysis using MACSQuant 10 (Miltenyi Biotec, Germany). Unstained WT and transfected HEK293 cells were included in the analysis as negative controls. After acquisition, all raw data were analyzed using Flowlogic software. Cells were gated using forward and side scatter profile percentage of positive cells was determined for native and overexpressing cell populations.

[3] = molecular target: T4, human HER4 expressed on HEK293 cells (human, UniProt Q15303 26-1308); assay: flow cytometry on HEK293 HER4 overexpressing cells
T4 construct: whole, on cells; also called HEK293 HER4 overexpressing cells; cell-surface expressed HER4
T4 sequence (Q15303 26-1308): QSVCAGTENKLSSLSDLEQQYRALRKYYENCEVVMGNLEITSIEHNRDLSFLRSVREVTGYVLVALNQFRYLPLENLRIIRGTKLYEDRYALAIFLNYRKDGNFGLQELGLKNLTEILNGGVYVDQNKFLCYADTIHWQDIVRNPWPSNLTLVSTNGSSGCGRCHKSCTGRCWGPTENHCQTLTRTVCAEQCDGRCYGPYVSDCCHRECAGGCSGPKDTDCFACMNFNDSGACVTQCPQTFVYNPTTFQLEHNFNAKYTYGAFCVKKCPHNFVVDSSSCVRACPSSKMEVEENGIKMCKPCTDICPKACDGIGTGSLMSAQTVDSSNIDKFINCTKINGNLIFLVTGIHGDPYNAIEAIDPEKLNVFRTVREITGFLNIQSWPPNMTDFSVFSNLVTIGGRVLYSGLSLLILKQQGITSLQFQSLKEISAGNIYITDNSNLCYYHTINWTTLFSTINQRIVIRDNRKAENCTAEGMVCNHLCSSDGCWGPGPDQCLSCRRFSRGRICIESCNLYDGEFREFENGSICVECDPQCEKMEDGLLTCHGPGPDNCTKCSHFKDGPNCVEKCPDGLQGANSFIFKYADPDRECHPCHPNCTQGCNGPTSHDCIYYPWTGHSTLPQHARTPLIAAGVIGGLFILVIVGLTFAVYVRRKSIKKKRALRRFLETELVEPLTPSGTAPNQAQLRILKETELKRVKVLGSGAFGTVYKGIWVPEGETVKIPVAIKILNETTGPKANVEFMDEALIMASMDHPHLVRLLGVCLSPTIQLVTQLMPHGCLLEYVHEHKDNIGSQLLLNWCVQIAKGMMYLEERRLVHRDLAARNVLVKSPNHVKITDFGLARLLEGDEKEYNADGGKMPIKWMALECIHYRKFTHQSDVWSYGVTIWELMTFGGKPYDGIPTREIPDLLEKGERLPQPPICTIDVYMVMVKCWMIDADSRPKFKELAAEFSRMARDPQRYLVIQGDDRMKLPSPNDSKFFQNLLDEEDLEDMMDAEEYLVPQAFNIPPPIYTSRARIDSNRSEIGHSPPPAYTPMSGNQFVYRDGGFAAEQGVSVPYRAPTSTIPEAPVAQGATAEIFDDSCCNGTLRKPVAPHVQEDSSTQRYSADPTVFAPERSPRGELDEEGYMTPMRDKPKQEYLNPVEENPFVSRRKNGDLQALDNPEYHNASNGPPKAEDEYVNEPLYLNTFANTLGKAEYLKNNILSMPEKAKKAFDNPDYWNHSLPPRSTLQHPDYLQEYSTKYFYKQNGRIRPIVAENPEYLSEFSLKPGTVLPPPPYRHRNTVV
Method: Also included was a commercial anti-HER4 antibody (Novus, Cat: FAB11311P). Unstained HEK293 cells were included in the analysis as negative controls.
HEK293 cells were incubated with 10 μg/ml of each antibody for 1 hour at 4° C. Flow cytometry was performed as described above. Cells were contacted with FITC-conjugated anti-FC antibody (Invitrogen, USA) at for 30 min at 4° C.

[4] = molecular target: T3, human HER3 expressed on cells (HEK293 …); assay: flow cytometry on HEK293T HER3 O/E cells, 10 ug antibody as printed, FITC-conjugated anti-Fc secondary; remark: listed apart in the source
Method: as §1

human HER3 polypeptide [5] = molecular target: T5, human HER3 polypeptide (human, UniProt P21860 20-643); assay: ELISA, plate coated with human HER3, antibody titrated, absorbance 450 nm, x axis Log([Ab]) (ug/ml)
T5 construct: Recombinant antigen of the ELISAs; also called human HER3 (Sino Biological Inc.); human antigen HER3

His-tagged human HER3 [6] = molecular target: T2, His-tagged human HER3; assay: BLI (Octet QK384), antibody captured on AHC sensors, His-tagged human HER3 in solution, without NRG1
Method: Binding of anti-HER3 antibodies to human HER3 was evaluated by BLI. Briefly, anti-Human IgG Capture (AHC) sensors (ForteBio) were loaded with anti-HER3 IgG antibodies (25 nM). Kinetic measurements were performed in absence or presence of NRG1. NRG1 was used at 1:1 molar ratio with HER3 wherein the complex was allowed to form at RT for 2 h. […] All measurements were performed at 25° C. with agitation at 1000 rpm. Sensorgrams were referenced for buffer effects and then analyzed using the Octet QK384-software (ForteBio). Kinetic responses were globally fitted using a one-site binding model to obtain values for association (Kₒₙ), dissociation (Koff) rate constants and the equilibrium dissociation constant (KD).

His-tagged human HER3 [7] = molecular target: T2, His-tagged human HER3; assay: Bio-Layer Interferometry (Octet QK384); antibody on anti-Human IgG Capture tips, HIS-tagged human HER3 at 35, 69, 139 and 278 nM
human HER3 polypeptide [8] = molecular target: T5, human HER3 polypeptide; assay: BLI; after 15 days at 40 °C/80% RH
hCD16a = molecular target: T6, hCD16a (human, UniProt P08637 17-208, limits assumed); assay: BLI; after 15 days at 40 °C/80% RH
T6 construct: also called human CD16a

Kd (moFcRn): 14.6 nM
koff (His-tagged human HER3 [1]): 2.16e-05 s⁻¹
% Parent (HER3 positive) [2]: 73.3%
binding result [3]: no binding
% Parent (HER3 positive) [4]: 73.3%
EC50 (read off the curve) (human HER3 polypeptide [5]): ~2 ng/mL
Kd (His-tagged human HER3 [6]): < 1 pM
koff (His-tagged human HER3 [6]): < 1e-07 s⁻¹
kon (His-tagged human HER3 [6]): 199000 M⁻¹ s⁻¹
Kd (His-tagged human HER3 [7]): 0.0726 nM
koff (His-tagged human HER3 [7]): 2.16e-05 s⁻¹
kon (His-tagged human HER3 [7]): 297000 M⁻¹ s⁻¹
Kd (human HER3 polypeptide [8]): < 1 pM
Kd (hCD16a): 265 nM
B1: 10D1F.FcA (anti-HER3 clone 10D1_c89 IgG1) (antibody)
heavy: not shown
light: DIQMTQSPSSVSASVGDRVTITCKASQIVGSNVAWYQQKPGKAPEPLIYSASYLYSGVPSRFSGSGSGTDFTLTISSLQPEDFATYYCQQYSSHPLTFGQGTKLEIKRTVAAPSVFIFPPSDEQLKSGTASVVCLLNNFYPREAKVQWKVDNALQSGNSQESVTEQDSKDSTYSLSSTLTLSKADYEKHKVYACEVTHQGLSSPVTKSFNRGEC
notes: also called 10D1F.A; HMBD-001
